This assay has as its target lnkH2B-H2A.Z (linked H2B-H2A.Z, single polypeptide chain) (human) (UniProt Q16778). Description: AUC.

B1: Anp32e_(186-232) (domain or fragment)
chain: EEEEEEEEEDEDEDEDEDEAGSELGEGEEEVGLSYLMKEEIQDEEDD
Turning to B1, the stoichiometry N came out at 1.

The stoichiometry N is a count of units in the complex or per binding partner.

The record behind these values is article PMC3975505.
